Test [1] addresses protein zero related (PZR), tyrosine-phosphorylated (human) (UniProt O95297). The test can be described thus: immuno-depletion of extracts of pervanadate-treated cells with anti-PZR, Western blot of the supernatants. In general terms: Immunoblotting shows a protein as a band on a membrane.
Test [2] has the same target. The test can be described thus: immuno-depletion of extracts of pervanadate-treated cells with anti-SHP-2, Western blot of the supernatants.

A value given as a limit tells only on which side of the number the result lay.

Sequence of protein zero related (PZR), tyrosine-phosphorylated (human) (O95297 36-269 limits assumed): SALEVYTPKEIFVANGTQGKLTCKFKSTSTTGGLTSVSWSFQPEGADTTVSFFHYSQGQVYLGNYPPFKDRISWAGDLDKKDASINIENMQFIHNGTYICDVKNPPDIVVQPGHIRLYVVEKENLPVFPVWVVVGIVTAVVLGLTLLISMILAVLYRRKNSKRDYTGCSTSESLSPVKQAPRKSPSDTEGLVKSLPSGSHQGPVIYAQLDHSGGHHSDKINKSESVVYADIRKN

Regarding “tyrosine phosphatase SHP-2, native full-length form (from UniProt Q06124 2-593) (enzyme)”, the removal of SHP-2 from the extracts on immuno-depletion of PZR in test [1] was 50%. In addition, the loss of PZR from the extracts on immuno-depletion of SHP-2 in test [2] was > 90%.

For the origin of these results see patent publication US20030171565A1.
